# Assays:
# [1] = molecular target: P11475 IgM Fab fragment (Fab of the BcR IG of CLL subset no. 2 case P11475) (human); test: ITC; dilution ITC, VP-ITC, 20 °C; 20 mM Tris pH 7.4, 100 mM glycine, 100 mM NaCl; Fab at the maximum achievable concentration (300-400 μM) injected into buffer; dimer to monomers
# [2] = molecular target: P11475 IgM Fab fragment (Fab of the BcR IG of CLL subset no. 2 case P11475) (human); test: AUC; sedimentation velocity, absorbance detection, 72,756g, 20 °C; CLL240 and wild-type CLL183 at 0.1, 0.2 and 0.4 mg ml^-1, CLL183 mutants and the other Fabs up to 1 mg ml^-1; storage buffer (50 mM Tris pH 7, 100 mM glycine) and PBS; monomer-dimer; koff from simultaneous fit of three …
# [3] = molecular target: CLL183 Fab (Fab of the BcR IG of CLL subset no. 4 case CLL183) (human); test: as above
# [4] = molecular target: CLL183 Fab (Fab of the BcR IG of CLL subset no. 4 case CLL183) (human); test: AUC; sedimentation equilibrium, 0.1, 0.15 and 0.26 mg ml^-1 in storage buffer, 20 °C, four speeds, global fit with a two-state self-association model; dimer to monomers
# [5] = molecular target: CLL240 Fab (Fab of the BcR IG of CLL subset no. 4 case CLL240) (human); test: AUC; sedimentation velocity, absorbance detection, 72,756g, 20 °C; CLL240 and wild-type CLL183 at 0.1, 0.2 and 0.4 mg ml^-1, CLL183 mutants and the other Fabs up to 1 mg ml^-1; storage buffer (50 mM Tris pH 7, 100 mM glycine) and PBS; monomer-dimer; koff from simultaneous fit of three …
# [6] = molecular target: CLL240 Fab (Fab of the BcR IG of CLL subset no. 4 case CLL240) (human); test: AUC; sedimentation equilibrium, 0.1, 0.15 and 0.26 mg ml^-1 in storage buffer, 20 °C, four speeds, global fit with a two-state self-association model; dimer to monomers
binder,measurement,setting,value
"P11475 IgM Fab fragment (Fab of the BcR IG of CLL subset no. 2 case P11475) (Fab, V domains shown) VH: EVQLVESGGGLVKPGGSLRLSCAASGFTFRSYSMNWVRQAPGKGLEWVSSIISSSSYIYYADSVKGRFTISRDNAKNSLYLQMNSLRAEDTALYYCARDQNAMDVWGQGTTVTVSS VL: SYELTQPPSVSVAPGKTARITCAGNNIGSKSVHWYQQKPGQAPVLVIYYDSDRPSGIPERFSGSNSGNTATLTISRVEAGDEADYYCQVWDSGSDHPWVFGGGTKLTVL",Kd,[1],430 µM
same,dH,[1],-5.4 kcal/mol
same,koff,[2],> 0.01 s⁻¹
"CLL183 Fab (Fab of the BcR IG of CLL subset no. 4 case CLL183) (Fab, V domains shown) VH: QLQLQQWGAGLLKPSETLSLTCAVYGGSFSGYYWTWIRQSPGKGLEWIGEINHSGSTTYNPSLKSRVTISVDTSKNQFSLKLNSVTAADTAVYYCARGYGDTPTIRRYYYYGMDVWGQGTTVTVSS VL: DVVMTQSPLSLPVTLGQPASISCRSSQSLVHSDGNTYLNWFQQRPGQSPRRLIYKVSDRDSGVPDRFSGSGSGTDFTLKISRVEAEDVGLYYCMQGTHWPPYTFGQGTKVEIK",koff,[3],1.99e-05 s⁻¹
same,stoichiometry N,[3],2
same,Kd,[4],15.6 µM
"CLL240 Fab (Fab of the BcR IG of CLL subset no. 4 case CLL240) (Fab, V domains shown) VH: QVQLQQWGAGLLKPSETLSLNCAVYGESFSGYYWSWIRQPPGKGLEWIGEINHSGSTNYNPSLKSRVTISVDTSKNQFSLKLSSVTAADAAIYYCARGYADTPVFRRYYYYGMDVWAKGTTVTVSS VL: DIVMTQSPLSLPVTLGQPASISCRSSQSLVHSDGNTYLNWFQQRPGQSPRRLIYKVSDRDSGVPDRFSGSGSGTDFTLKISRVEAEDVGVYYCMQGTHWPPYTFGQGTKVEIK",koff,[5],0.000263 s⁻¹
same,stoichiometry N,[5],2
same,Kd,[6],14 µM

# — PMC5472768
